The source of these data is paper PMC9482650, “Quantitative fragmentomics allow affinity mapping of interactomes” (Nature Communications, 2022).

Targets include MAGI1_2, Q96QZ7; GRASP, Q7Z6J2; LAP2, Q96RT1; DLG5_1, Q8TDM6; Inadl_1, Q8NI35; GRIP2_4, Q9C0E4; GRID2IP_2, A4D2P6; GOPC, Q9HD26; Inadl_2, Q8NI35; TJP1_2, Q07157; DLG2_3, Q15700; SCRIB_2, Q14160.
Test in all cases: holdup assay
What all share (set-up): key: below the threshold = too weak to quantify, mostly under pKd 3.1 to 4
Details in all cases: plain residues with an end cap or a label only (N-terminal biotin on a linker: ado-ado)

Another test addresses T1, MPDZ_12, O75970.
T1 sequence (O75970 1857-1958, limits assumed, looked up): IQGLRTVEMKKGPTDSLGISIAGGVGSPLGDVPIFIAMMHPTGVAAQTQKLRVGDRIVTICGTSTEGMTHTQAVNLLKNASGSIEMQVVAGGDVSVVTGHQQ

In another test the target is T2, APBA1_1, Q02410.
T2 sequence (Q02410 651-752, limits assumed, looked up): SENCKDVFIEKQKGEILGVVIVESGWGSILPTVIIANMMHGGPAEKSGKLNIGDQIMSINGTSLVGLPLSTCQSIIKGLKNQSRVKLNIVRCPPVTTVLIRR

For the next test, the target named is T3, GRIP1_2, Q9Y3R0.
T3 sequence (Q9Y3R0 145-248, limits assumed, looked up): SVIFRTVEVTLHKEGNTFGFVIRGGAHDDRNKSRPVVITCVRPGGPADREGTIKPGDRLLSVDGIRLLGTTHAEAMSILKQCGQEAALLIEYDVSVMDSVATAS

The target in the next test is T4, HTRA3, P83110.
T4 sequence (P83110 354-453, limits assumed, looked up): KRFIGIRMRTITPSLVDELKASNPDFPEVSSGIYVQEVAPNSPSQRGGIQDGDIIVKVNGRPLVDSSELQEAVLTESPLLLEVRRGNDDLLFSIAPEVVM

The target of a further test is T5, ARHGEF11, O15085.
T5 sequence (O15085 42-136, limits assumed, looked up): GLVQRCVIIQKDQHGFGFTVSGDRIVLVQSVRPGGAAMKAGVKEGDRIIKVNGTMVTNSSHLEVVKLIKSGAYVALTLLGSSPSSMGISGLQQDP

In the next test the target is T6, SHANK1, Q9Y566.
T6 sequence (Q9Y566 658-767, limits assumed, looked up): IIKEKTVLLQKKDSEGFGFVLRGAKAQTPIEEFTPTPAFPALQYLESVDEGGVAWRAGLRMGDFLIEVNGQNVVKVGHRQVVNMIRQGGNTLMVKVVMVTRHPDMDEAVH

Another test addresses T7, GRIP1_3, Q9Y3R0.
T7 sequence (Q9Y3R0 247-346, limits assumed, looked up): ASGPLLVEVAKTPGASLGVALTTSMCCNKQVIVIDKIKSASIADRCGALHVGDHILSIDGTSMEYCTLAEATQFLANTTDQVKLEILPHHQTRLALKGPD

Another test deals with T8, DLG3_3, Q92796.
T8 sequence (Q92796 374-475, limits assumed, looked up): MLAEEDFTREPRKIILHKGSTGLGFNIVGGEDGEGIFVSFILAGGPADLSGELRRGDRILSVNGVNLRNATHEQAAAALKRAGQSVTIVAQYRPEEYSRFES

The target in the next test is T9, DLG3_2, Q92796.
T9 sequence (Q92796 221-321, limits assumed, looked up): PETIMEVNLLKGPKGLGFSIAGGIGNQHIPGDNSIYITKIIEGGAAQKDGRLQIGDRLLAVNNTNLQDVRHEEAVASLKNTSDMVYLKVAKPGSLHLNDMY

In a further test the target is T10, PARD3B_1, Q8TEW8.
T10 sequence (Q8TEW8 196-299, limits assumed, looked up): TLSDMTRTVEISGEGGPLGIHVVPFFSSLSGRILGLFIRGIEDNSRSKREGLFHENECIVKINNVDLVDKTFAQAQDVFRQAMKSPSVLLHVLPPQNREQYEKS

The target of another test is T11, APBA2_2, Q99767.
T11 sequence (Q99767 654-744, limits assumed, looked up): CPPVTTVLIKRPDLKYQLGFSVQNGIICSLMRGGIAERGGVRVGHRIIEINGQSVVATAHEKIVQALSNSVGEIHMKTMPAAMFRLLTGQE

Another test has as its target T12, MPP6, Q9NZW5.
T12 sequence (Q9NZW5 125-219, limits assumed, looked up): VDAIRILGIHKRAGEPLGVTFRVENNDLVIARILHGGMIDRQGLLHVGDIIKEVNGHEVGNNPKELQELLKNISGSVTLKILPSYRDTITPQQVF

Sequence of MAGI1_2, Q96QZ7 (Q96QZ7 456-580): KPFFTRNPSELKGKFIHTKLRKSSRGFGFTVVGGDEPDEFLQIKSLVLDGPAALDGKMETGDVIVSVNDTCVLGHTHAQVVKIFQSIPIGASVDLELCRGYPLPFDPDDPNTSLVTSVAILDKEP
Sequence of TJP1_2, Q07157 (Q07157 181-274): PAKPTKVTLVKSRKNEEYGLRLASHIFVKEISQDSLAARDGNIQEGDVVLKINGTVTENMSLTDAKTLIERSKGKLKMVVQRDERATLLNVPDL
Sequence of GRIP2_4, Q9C0E4 (Q9C0E4 446-548): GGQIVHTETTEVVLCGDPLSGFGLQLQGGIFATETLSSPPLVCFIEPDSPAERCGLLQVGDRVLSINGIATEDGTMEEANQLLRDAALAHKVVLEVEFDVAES
Sequence of Inadl_1, Q8NI35 (Q8NI35 113-229): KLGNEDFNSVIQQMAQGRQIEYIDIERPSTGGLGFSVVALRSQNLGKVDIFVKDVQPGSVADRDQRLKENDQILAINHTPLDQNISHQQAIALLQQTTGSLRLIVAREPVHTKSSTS
Sequence of Inadl_2, Q8NI35 (Q8NI35 238-335): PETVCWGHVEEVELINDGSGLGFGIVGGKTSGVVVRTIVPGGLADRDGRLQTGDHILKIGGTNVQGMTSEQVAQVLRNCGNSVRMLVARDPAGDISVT
Sequence of DLG5_1, Q8TDM6 (Q8TDM6 617-713): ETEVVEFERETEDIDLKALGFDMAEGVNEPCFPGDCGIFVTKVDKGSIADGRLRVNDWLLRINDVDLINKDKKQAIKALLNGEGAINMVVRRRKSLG
Sequence of SCRIB_2, Q14160 (Q14160 857-960): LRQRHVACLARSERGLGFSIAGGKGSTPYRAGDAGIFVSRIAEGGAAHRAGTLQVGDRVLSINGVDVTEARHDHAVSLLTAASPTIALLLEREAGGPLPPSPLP
Sequence of GRASP, Q7Z6J2 (Q7Z6J2 96-193): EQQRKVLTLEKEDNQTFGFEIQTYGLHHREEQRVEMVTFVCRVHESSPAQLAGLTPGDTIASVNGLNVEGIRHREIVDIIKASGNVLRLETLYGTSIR
Sequence of GRID2IP_2, A4D2P6 (A4D2P6 272-370): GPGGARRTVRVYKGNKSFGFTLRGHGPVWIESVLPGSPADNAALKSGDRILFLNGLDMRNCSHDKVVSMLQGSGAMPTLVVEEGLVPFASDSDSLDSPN
Sequence of LAP2, Q96RT1 (Q96RT1 other isoform, or with tags, fused parts or gaps): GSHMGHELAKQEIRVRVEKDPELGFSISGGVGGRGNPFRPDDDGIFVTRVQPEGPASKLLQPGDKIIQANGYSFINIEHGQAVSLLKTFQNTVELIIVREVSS

B1: TNRC6A, Q8NDV7 (peptide)
chain: DHLGGGGESM
As for B1, the pKd entry in the test with MAGI1_2, Q96QZ7 is “below the threshold”; with GRASP, Q7Z6J2, “below the threshold”; with LAP2, Q96RT1, 3.74; in the test with DLG5_1, Q8TDM6, “below the threshold”; with MPDZ_12, O75970, “below the threshold”; with APBA1_1, Q02410, “below the threshold”. Moreover, the negative-log Kd (pKd) entry is listed as “below the threshold” with Inadl_1, Q8NI35; “below the threshold” with GRIP2_4, Q9C0E4; “below the threshold” with GRID2IP_2, A4D2P6; “below the threshold” with GRIP1_2, Q9Y3R0; “below the threshold” in the test with HTRA3, P83110; “below the threshold” with GOPC, Q9HD26. Besides, the pKd entry was “below the threshold” in the test with Inadl_2, Q8NI35; “below the threshold” with ARHGEF11, O15085; “below the threshold” with SHANK1, Q9Y566; “below the threshold” in the test with TJP1_2, Q07157; “below the threshold” in the test with GRIP1_3, Q9Y3R0; “below the threshold” with DLG3_3, Q92796. The pKd entry with DLG3_2, Q92796 was “below the threshold”; with PARD3B_1, Q8TEW8 it was 3.59; with DLG2_3, Q15700, “below the threshold”; with APBA2_2, Q99767, “below the threshold”; with SCRIB_2, Q14160, “below the threshold”; with MPP6, Q9NZW5, 3.69.

B2: RSBN1, Q5VWQ0 (peptide)
chain: NLQEHSTTSV
B2: the pKd was 3.53 with MAGI1_2, Q96QZ7; 4.51 in the test with GRASP, Q7Z6J2; 3.72 with LAP2, Q96RT1; “below the threshold” with DLG5_1, Q8TDM6; “below the threshold” with MPDZ_12, O75970; “below the threshold” with APBA1_1, Q02410. Also, the pKd result is “below the threshold” with Inadl_1, Q8NI35; “below the threshold” in the test with GRIP2_4, Q9C0E4; 3.8 with GRID2IP_2, A4D2P6; “below the threshold” in the test with GRIP1_2, Q9Y3R0; “below the threshold” with HTRA3, P83110; 3.57 with GOPC, Q9HD26. Besides, the pKd result with Inadl_2, Q8NI35 was “below the threshold”; with ARHGEF11, O15085, 4.13; with SHANK1, Q9Y566 it was 3.91; in the test with TJP1_2, Q07157 it was “below the threshold”; in the test with GRIP1_3, Q9Y3R0, “below the threshold”; with DLG3_3, Q92796, 3.73. In addition, the pKd was 3.47 in the test with DLG3_2, Q92796; “below the threshold” with PARD3B_1, Q8TEW8; 4 with DLG2_3, Q15700; “below the threshold” with APBA2_2, Q99767; “below the threshold” with SCRIB_2, Q14160; 3.69 with MPP6, Q9NZW5.

B3: EPHB6, O15197 (peptide)
chain: HLRQQGSVEV
As for B3, the pKd entry with MAGI1_2, Q96QZ7 is “below the threshold”; with GRASP, Q7Z6J2, “below the threshold”; with LAP2, Q96RT1, “below the threshold”; in the test with DLG5_1, Q8TDM6, “below the threshold”; with MPDZ_12, O75970 it was “below the threshold”; in the test with APBA1_1, Q02410 it was “below the threshold”. In addition, the pKd result is “below the threshold” in the test with Inadl_1, Q8NI35; “below the threshold” in the test with GRIP2_4, Q9C0E4; “below the threshold” in the test with GRID2IP_2, A4D2P6; “below the threshold” with GRIP1_2, Q9Y3R0; 3.81 in the test with HTRA3, P83110; “below the threshold” with GOPC, Q9HD26. Besides, the pKd entry was “below the threshold” in the test with Inadl_2, Q8NI35; 4.13 with ARHGEF11, O15085; “below the threshold” in the test with SHANK1, Q9Y566; “below the threshold” in the test with TJP1_2, Q07157; “below the threshold” with GRIP1_3, Q9Y3R0; “below the threshold” with DLG3_3, Q92796. The pKd result with DLG3_2, Q92796 is “below the threshold”; in the test with PARD3B_1, Q8TEW8, 3.69; with DLG2_3, Q15700, “below the threshold”; in the test with APBA2_2, Q99767 it was “below the threshold”; in the test with SCRIB_2, Q14160 it was “below the threshold”; with MPP6, Q9NZW5, “below the threshold”.

B4: PLCB1, Q9NQ66 (peptide)
chain: IPGKEFDTPL
For the molecule B4, the pKd entry was “below the threshold” in the test with MAGI1_2, Q96QZ7; “below the threshold” with GRASP, Q7Z6J2; 3.58 with LAP2, Q96RT1; “below the threshold” with DLG5_1, Q8TDM6; “below the threshold” with MPDZ_12, O75970; “below the threshold” with APBA1_1, Q02410. Further, the pKd result in the test with Inadl_1, Q8NI35 is given as “below the threshold”; with GRIP2_4, Q9C0E4 it was “below the threshold”; in the test with GRID2IP_2, A4D2P6, “below the threshold”; in the test with GRIP1_2, Q9Y3R0 it was “below the threshold”; with HTRA3, P83110, “below the threshold”; with GOPC, Q9HD26, “below the threshold”. Further, the pKd entry with Inadl_2, Q8NI35 was “below the threshold”; with ARHGEF11, O15085, “below the threshold”; with SHANK1, Q9Y566, 3.96; in the test with TJP1_2, Q07157, “below the threshold”; with GRIP1_3, Q9Y3R0 it was “below the threshold”; with DLG3_3, Q92796, “below the threshold”. In addition, the pKd result with DLG3_2, Q92796 was “below the threshold”; with PARD3B_1, Q8TEW8, “below the threshold”; in the test with DLG2_3, Q15700, “below the threshold”; in the test with APBA2_2, Q99767 it was “below the threshold”; with SCRIB_2, Q14160 it was “below the threshold”; in the test with MPP6, Q9NZW5, 3.59.

As usually defined, the pKd is the negative decadic logarithm of the Kd, by convention in mol/L.
